Where a chain is given by its changes, count along the chain named.
B1: 75110_06D16A (antibody, V domains shown)
VH: QVQLQQWGAGLLKPSETLSLTCAVYGGSFSGYYWSWIRQPPGKGLEWIGEINHSGSTNYNPSLKSRVTISVVTSKNQFSLKLSSVTAADTAVYYCARVLNWFDPWGQGTLVTVSS
VL: DIQMTQSPSSVSASVGDRVTITCRASQDIADWLAWYQQKPGKAPKLLIYAASSFQSGVPSRFSGSGSGTDFTLTISSLQPEDFATYFCQQANSFPYTFGQGTKLEIK
notes: Tested as antibody purified from AlivaMab Mouse Kappa hybridoma (human V regions, kappa light chain, mouse Fc captured by anti-mouse Fc sensors)
B2: 75110_07B16A (antibody, V domains shown)
VH: B1 VH with P40S, H53Q, V72D, N76D, L99I, P104S, T109S
VL: B1 VL with D28G, A30S, D31S, A50D, P80T, E81D, F87Y
notes: as for B1
B3: 75110_06C16A (antibody, V domains shown)
VH: QVQLQESGPGLVTPSETLSLSCTVSGGSISDYYWSWIRQPGGKGLEWIGRIYSSGSTNYNPSLKSRVTMSVDTSKNQFSLKLSSVTAADTAVYFCARDREDYYYYGMDVWGQGTTVTVSS
VL: DIQMTQSPSSLSASVGDRVTITCQASHDISNYLNWYQQKPGKAPKLLIYAASNLETGVPSRFSGSGSGTDFSFTISSLQPEDIATYYCQQYDHLPLTFGGGTKVEIK
notes: as for B1
B4: 75110_06K03A (antibody, V domains shown)
VH: QVQLQESGPGLVKPSETLSLTCTVSGGSISTYYWSWIRQPAGKGLEWIGRINTSGSTTYNPSLKSRVTMSVDTSKNQFSLKLSSVTAADTAVYYCARELERYYYYGMDVWGQGTTVTVSS
VL: B3 VL with H27Q, A50Y, N53I, S72T, H93S
notes: as for B1
B5: 75110_08D24A (antibody, V domains shown)
VH: B4 VH with T31G, Y32F, N52Y, G55E, S56N, T58N, E98D, L99R, R101G
VL: B3 VL with H27Q, S72T, H93S, L96I, G100Q, K103R, V104L
notes: as for B1
B6: 75110_06G04A (antibody, V domains shown)
VH: B4 VH with Q5L, T31S, N52Y, T53I, T58N, V71I, K75E, K81N, Y102P
VL: B3 VL with H27Q, A50N, N53T, S72T, H93N, I106F
notes: as for B1
B7: 75110_08M20A (antibody, V domains shown)
VH: B4 VH with G8D, T31S, N52Y, T53A, T58N, E98D, L99R, R101G
VL: B3 VL with H27Q, N31K, K45N, S72T, T85A, H93S, L96I, G100Q, K103R, V104L
notes: as for B1
B8: 75110_06E14A (antibody, V domains shown)
VH: B3 VH with T13K, S21T, D31N, Y33F, G41A, S56N, F94Y
VL: B3 VL with H27Q, A50G, N53I, S63T, S72T, H93S, L96I, G100Q, K103R, V104L
notes: as for B1
B9: 75110_08H11A (antibody, V domains shown)
VH: EVQLVESGGGLVQPGGSLRLSCAASGFTFSSYDMHWVRQATGKGLEWVSTIGTAGDTYYPGSVKGRFTISRENAKNSLYLQMNSLRAGDTAVYYCARGGYSYYGMDVWGQGTTVTVSS
VL: EIVLTQSPGTLSLSPGERATLSCGASQSVSSTYLAWYQQKPGQAPRLLIYGASSRATGIPDRFSGSGSGTDFTLTISRLEPEDFAVYYCQQFGSSPFTFGPGTKVDIK
notes: Tested as antibody purified from AlivaMab Mouse Kappa hybridoma (human V regions, kappa light chain, mouse Fc captured by anti-mouse Fc sensors); also called 75110_08H1lA
B10: 75110_05K11A (antibody, V domains shown)
VH: B9 VH with A40P, G61A, Y100F, S101Y
VL: B9 VL with A19V, G24R, S31N, A85V, F92H
notes: as for B1
B11: 75110_10N21A (antibody, V domains shown)
VH: B9 VH with A40V, S101Y
VL: B9 VL with G24R, V29F, S30I, T32S, E80D, F92S, S94N, I107V
notes: as for B1
B12: 75110_14H13A (antibody, V domains shown)
VH: B9 VH with S31N, E72K, N83I, Y100D, S101Y
VL: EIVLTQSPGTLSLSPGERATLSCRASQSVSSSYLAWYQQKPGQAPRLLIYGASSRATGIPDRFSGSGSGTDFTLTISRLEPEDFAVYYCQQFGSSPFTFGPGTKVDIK
notes: as for B1
B13: 75110_08H06A (antibody, V domains shown)
VH: B9 VH with S31N, S101D
VL: B9 VL with G24R, V29I, S30T, T32I, Q38R, F92Y
notes: as for B1
B14: 75110_10L22A (antibody, V domains shown)
VH: B9 VH with S84G, G99N, S101F, M105V
VL: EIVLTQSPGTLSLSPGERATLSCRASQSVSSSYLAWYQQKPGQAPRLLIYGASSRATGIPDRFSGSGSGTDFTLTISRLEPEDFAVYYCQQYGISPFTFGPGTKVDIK
notes: as for B1
B15: 75110_10O16A (antibody, V domains shown)
VH: B9 VH with S31N, Y32S, Y100L, S101Y
VL: B9 VL with I2N, G24R, T32S, Q90H
notes: Tested as antibody purified from AlivaMab Mouse Kappa hybridoma (human V regions, kappa light chain, mouse Fc captured by anti-mouse Fc sensors); also called 75110_10016A
B16: 75110_13C07A (antibody, V domains shown)
VH: B9 VH with G10V, S31N, I69L, N83H, G99A, S101G
VL: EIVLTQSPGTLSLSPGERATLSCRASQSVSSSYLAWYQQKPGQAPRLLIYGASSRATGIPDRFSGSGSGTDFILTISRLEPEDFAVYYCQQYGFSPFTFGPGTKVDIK
notes: as for B1
B17: 75110_07E04A (antibody, V domains shown)
VH: B9 VH with A24V, N76K, S77F, S101Y
VL: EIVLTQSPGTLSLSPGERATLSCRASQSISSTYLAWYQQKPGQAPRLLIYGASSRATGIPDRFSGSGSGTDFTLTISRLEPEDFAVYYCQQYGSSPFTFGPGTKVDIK
notes: as for B1
B18: 75110_08K12A (antibody, V domains shown)
VH: B9 VH with K75E, V92L, G99D, S101Y
VL: B9 VL with G24R, S54N, S94T
notes: as for B1
B19: 75110_05L07A (antibody, V domains shown)
VH: EVQLVESGGGLVQPGGSLRLSCAASGFTFSSYWMSWVRQAPGKGLEWVANINQDGSDKYYVDSVKGRFTISRDNVKNSLYLQINSLRAEDTAVYYCAREGGQWLTLDYWGQGTLVTVSS
VL: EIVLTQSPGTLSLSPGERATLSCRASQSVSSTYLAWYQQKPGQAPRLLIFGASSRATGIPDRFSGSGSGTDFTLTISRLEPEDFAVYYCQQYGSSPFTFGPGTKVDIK
notes: as for B1
B20: 75110_11D03A (antibody, V domains shown)
VH: B19 VH with S56N, D57E, V75A, Y80F, I83M, T105A, T113A
VL: B1 VL with D28G, A30S, D31S, L46F, Y49S, A50G, F54L, F87Y, Y96W, L104V
notes: as for B1
B21: 75110_12H19A (antibody, V domains shown)
VH: EVQLVESGGGLVQPGGSLRLSCAASGFTFSSYWMSWVRQAPGQGLEWVANINEDGNEKYHVDSVKGRLTISRDNAKNSLYLQMNSLRGVDTAVYFCAREGGQWLALDYWGQGALVTVSS
VL: B1 VL with T20S, D28G, A30S, D31S, A50G, S53G, F54L, F87Y, Y96W, L104V
notes: as for B1
B22: 75110_09G15A (antibody, V domains shown)
VH: B19 VH with S31D, D57E, Y60S, V75A, I83M, V93I, Y94F, T105A
VL: DIQMTQSPSSVSASVGDRVTITCRASQGISSWLAWYQQKPGKAPKLLIYGASSLQSGVPSRFSGSGSGTDFTLTINSLQPEDFTTYYCQQANIFPWTFGQGTKVEIK
notes: as for B1
B23: 75110_07H07A (antibody, V domains shown)
VH: B19 VH with L4V, N52K, Q53E, D54E, D57E, V75A, I83M, A97V, T105A
VL: B22 VL with A13G, Y49F, N76S, T84A, I93S, E105Q
notes: as for B1
B24: 75110_09N20A (antibody, V domains shown)
VH: B19 VH with Q53E, D57E, V75A, I83M, A97V, T105A
VL: B22 VL with G50A, R61S, T84A, I93S, E105A
notes: as for B1
B25: 75110_12C19A (antibody, V domains shown)
VH: B19 VH with N52K, Q53E, V75A, I83M, Y94H, A97V, T105A
VL: B22 VL with A13G, N76S, T84V, I93S
notes: as for B1
B26: 75110_12H17A (antibody, V domains shown)
VH: B21 VH with S31D, Q43K, N52K, H60Y, L68F, Y80F, G88A, V89E, F95Y
VL: B22 VL with L46F, Y49S, S63T, N76S, T84A, I93S
notes: as for B1
B27: 75110_07J02A (antibody, V domains shown)
VH: EVQLVESGGGLVQPGGSLRLSCAASGFTFSSYWMSWVRQAPGKGLEWVANIKEDGSEKYYVDSVKGRFTISRDNAKNSLYLQMNSLRAEDTAVYYCARDGSYSGYGMDVWGQGTTVTVSS
VL: AIQMTQSPSSLSASVGDRVTITCRASQGIRNDLGWYQQKPGKAPKLLIYAASSLQSGVPSRFSGRGSGTDFALTISSLQPEDFATYYCLLDYNYPYTFGQGTRLEIK
notes: Tested as antibody purified from AlivaMab Mouse Kappa hybridoma (human V regions, kappa light chain, mouse Fc captured by anti-mouse Fc sensors); also called 75110_07102A
B28: 75110_07J24A (antibody, V domains shown)
VH: QAQLQESGPGLVKPSETLSLTCTVSGGSISSYYYNWIRQPAGKGLEWIGRIYTSGRTDYNPSLKSRVTMSADTSKNQFSLKLSSVTAADTAVYYCARDEGPTDAFDIWGQGTMVTVSS
VL: DIVMTQTPLSLPVTPGEPASISCRSSQSLLDSDDGNTYLDWYLQKPGQSPHLLIYTLSYRASGVPDRFSGSGSGSDFTLKISRVEAEDVGVYYCMQRIEFPFTFGPGTKVDIK
notes: Tested as antibody purified from AlivaMab Mouse Kappa hybridoma (human V regions, kappa light chain, mouse Fc captured by anti-mouse Fc sensors); also called 75110_07124A

molecular target: T1, Recombinant human CD4 (R&D Systems, Cat. 10327-CD) (human, UniProt P01730 26-390, limits assumed); assay: BLI (Octet Red384), purified antibody on anti-mouse Fc sensors, human CD4 100/50/25 nM, global 1:1 fit;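 also: antibodies loaded at 10 µg/mL, curves fitted across association and dissociation phases, with an unrelated mouse-derived antibody serving as internal reference control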
T1 construct: Bought protein; also called huCD4

Binder | Kd | Response | koff | kon
B1 | 2.8 nM | 0.25 | 0.00028 s⁻¹ | 100000 M⁻¹ s⁻¹
B2 | 3 nM | 0.24 | 0.00043 s⁻¹ | 140000 M⁻¹ s⁻¹
B3 | 16 nM | 0.15 | 0.0012 s⁻¹ | 75000 M⁻¹ s⁻¹
B4 | 2.2 nM | 0.11 | 3.6e-05 s⁻¹ | 16000 M⁻¹ s⁻¹
B5 | 22 nM | 0.11 | 0.00027 s⁻¹ | 12000 M⁻¹ s⁻¹
B6 | 6 nM | 0.07 | 0.0015 s⁻¹ | 250000 M⁻¹ s⁻¹
B7 | 9.2 nM | 0.16 | 0.00091 s⁻¹ | 99000 M⁻¹ s⁻¹
B8 | 14 nM | 0.11 | 0.00026 s⁻¹ | 18000 M⁻¹ s⁻¹
B9 | 26 nM | 0.04 | 3.6e-05 s⁻¹ | 1400 M⁻¹ s⁻¹
B10 | < 0.001 nM | 0.04 | < 1e-07 s⁻¹ | 36000 M⁻¹ s⁻¹
B11 | 0.59 nM | 0.09 | 3.2e-05 s⁻¹ | 55000 M⁻¹ s⁻¹
B12 | 2.1 nM | 0.08 | 0.00011 s⁻¹ | 54000 M⁻¹ s⁻¹
B13 | 11 nM | 0.04 | 0.00043 s⁻¹ | 39000 M⁻¹ s⁻¹
B14 | 12 nM | 0.03 | 0.00045 s⁻¹ | 37000 M⁻¹ s⁻¹
B15 | 2.4 nM | 0.08 | 0.00035 s⁻¹ | 140000 M⁻¹ s⁻¹
B16 | 1.7 nM | 0.11 | 0.00016 s⁻¹ | 92000 M⁻¹ s⁻¹
B17 | < 0.001 nM | 0.07 | < 1e-07 s⁻¹ | 35000 M⁻¹ s⁻¹
B18 | 220 nM | 0.05 | 0.00022 s⁻¹ | –
B19 | 15 nM | 0.28 | 0.0016 s⁻¹ | 110000 M⁻¹ s⁻¹
B20 | 3.2 nM | 0.09 | 0.0013 s⁻¹ | 420000 M⁻¹ s⁻¹
B21 | 13 nM | 0.25 | 0.0022 s⁻¹ | 170000 M⁻¹ s⁻¹
B22 | 48 nM | 0.21 | 0.004 s⁻¹ | 85000 M⁻¹ s⁻¹
B23 | 9.4 nM | 0.16 | 0.0012 s⁻¹ | 130000 M⁻¹ s⁻¹
B24 | 53 nM | 0.09 | 0.0045 s⁻¹ | 86000 M⁻¹ s⁻¹
B25 | 5 nM | 0.08 | 0.0015 s⁻¹ | 290000 M⁻¹ s⁻¹
B26 | 26 nM | 0.19 | 0.0033 s⁻¹ | 120000 M⁻¹ s⁻¹
B27 | 14 nM | 0.1 | 0.0022 s⁻¹ | 160000 M⁻¹ s⁻¹
B28 | 7.1 nM | 0.19 | 0.0006 s⁻¹ | 85000 M⁻¹ s⁻¹
